According to patent US20210077563A1 (VIB VZW, published 2021):

Biological target: the molecule itself
Test: ESI-IMS-MS of colpeptin1 in 100 mM ammonium acetate buffer (self-association)

## RGLGLALVRRPRGLGLALVRR [Colpeptin1 (P2)]
  binding result: binds
